Measurements as given in patent US20230128344A1 (UNIVERSITY OF SOUTHERN CALIFORNIA, published 2023).

Target: T1, hCLL-1 on U937 human AML cells (human, UniProt Q5QGZ9 1-265)
T1 sequence (looked up): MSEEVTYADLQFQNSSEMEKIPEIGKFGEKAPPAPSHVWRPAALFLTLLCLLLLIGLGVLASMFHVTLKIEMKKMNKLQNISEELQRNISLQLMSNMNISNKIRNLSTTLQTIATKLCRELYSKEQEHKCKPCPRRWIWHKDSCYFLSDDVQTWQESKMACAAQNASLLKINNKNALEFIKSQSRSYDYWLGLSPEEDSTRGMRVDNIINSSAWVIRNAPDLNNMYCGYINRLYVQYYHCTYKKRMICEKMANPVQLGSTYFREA
Assay: cell-based or functional assay

B1: DAR2-ARC-ADC (DAR2-ARC-IgG conjugated with 2'-Cl-araNAD+-MMAF) (antibody)
heavy: not shown
light: ENVLTQSPAIMSASPGEKVTMTCRASSNVISSYVHWYQQRSGASPKLWIYSTSNLASGVPARFSGSGSGTSYSLTISSVEAEDAATYYCQQYSGYPLTFGAGTKLELKRAAAAPSVFIFPPSDEQLKSGTASVVCLLNNFYPREAKVQWKVDNALQSGNSQESVTEQDSKDSTYSLSSTLTLSKADYEKHKVYACEVTHQGLSSPVTKSFNRGEC
modifications: 2'-Cl-arabinose-ADP-MMAF on Glu226 of the CD38 domain (CD38 numbering)
in vitro cytotoxicity EC50 on U937 (CLL-1+) cells (MTT, 72 hours): 0.9 nM
